This experiment concerns the target T1, mouse tau (mouse, UniProt P10637-2 2-430, limits assumed).
T1 construct: also called mouse brain lysate comprising tau
The experiment in a line: Western blot of mouse brain lysate probed with the scFv (FIG. 4). The source says: FIG. 4 depicts Western blots showing that the scFv's detect human but not mouse tau. Mouse brain lysate comprising tau and recombinant human tau were both run on a gel and the scFv's SC1 (A) and SC3 (B) were used to detect tau. Recombinant human tau was detected by SC1 and SC3; mouse tau was not. Anti-vinculin Western blot was used as a loading control for tissue samples.
On the technique in general: In western blotting, separated proteins are transferred to a membrane and probed.

T1 sequence (P10637 other isoform, or with tags, fused parts or gaps limits assumed): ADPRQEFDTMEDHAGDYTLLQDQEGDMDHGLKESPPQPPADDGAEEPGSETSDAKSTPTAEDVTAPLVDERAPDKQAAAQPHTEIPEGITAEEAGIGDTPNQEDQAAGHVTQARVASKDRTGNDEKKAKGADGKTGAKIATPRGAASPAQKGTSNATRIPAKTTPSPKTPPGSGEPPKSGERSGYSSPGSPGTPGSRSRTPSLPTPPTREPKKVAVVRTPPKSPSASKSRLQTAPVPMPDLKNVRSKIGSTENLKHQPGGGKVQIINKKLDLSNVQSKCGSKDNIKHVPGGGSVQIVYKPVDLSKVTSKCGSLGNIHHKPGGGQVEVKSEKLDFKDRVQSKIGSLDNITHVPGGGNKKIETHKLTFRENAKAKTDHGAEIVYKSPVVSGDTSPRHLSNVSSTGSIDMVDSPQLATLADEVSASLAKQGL

B1: SC1 scFv HJ8.5 HA (scFv)
scFv: DIVLTQSPASLAVSLGQRATISCRASQSVSTSRYSYIHWYQQKPGQPPKLLIKYASNLESGVPARFSGSGSGTDFTLNIHPLEEEDAATYYCHHSWEIPLTFGAGTKLELKGGGSEVKVEESGGGLVQPGGSMKLSCVVSGFTFSNYWVNWVRQSPEKGLEWVAQIRLKSDNYATHYEESVKGRFTISRDDSKSSVYLQMNNLRAEDSGIYYCTNWEDYWGQGTTLTVSSYPYDVPDYA
notes: Encoded with an N-terminal secretory signal peptide (SP), left out here because the secreted protein was tested; also called HJ8.5 scFv SC1
Consider B1, for which the binding result is listed as “no binding”.

B2: SC3 scFv HJ8.5 HA (scFv)
scFv: DIVLTQSPASLAVSLGQRATISCRASQSVSTSRYSYIHWYQQKPGQPPKLLIKYASNLESGVPARFSGSGSGTDFTLNIHPLEEEDAATYYCHHSWEIPLTFGAGTKLELKSGGGSGGGSGGGSEVKVEESGGGLVQPGGSMKLSCVVSGFTFSNYWVNWVRQSPEKGLEWVAQIRLKSDNYATHYEESVKGRFTISRDDSKSSVYLQMNNLRAEDSGIYYCTNWEDYWGQGTTLTVSSYPYDVPDYA
notes: Encoded with an N-terminal secretory signal peptide (SP), left out here because the secreted protein was tested; also called HJ8.5 scFv SC3
Turning to B2, the binding result was “no binding”.

The record behind these values is patent US20180016328A1 (WASHINGTON UNIVERSITY, published 2018).
